We go through seven molecules from patent publication US20250002593A1 (INMAGENE PTE, published 2025).

Experiment [1] addresses T1, membrane hIL-36R (human, UniProt Q9HB29 20-575).
T1 sequence: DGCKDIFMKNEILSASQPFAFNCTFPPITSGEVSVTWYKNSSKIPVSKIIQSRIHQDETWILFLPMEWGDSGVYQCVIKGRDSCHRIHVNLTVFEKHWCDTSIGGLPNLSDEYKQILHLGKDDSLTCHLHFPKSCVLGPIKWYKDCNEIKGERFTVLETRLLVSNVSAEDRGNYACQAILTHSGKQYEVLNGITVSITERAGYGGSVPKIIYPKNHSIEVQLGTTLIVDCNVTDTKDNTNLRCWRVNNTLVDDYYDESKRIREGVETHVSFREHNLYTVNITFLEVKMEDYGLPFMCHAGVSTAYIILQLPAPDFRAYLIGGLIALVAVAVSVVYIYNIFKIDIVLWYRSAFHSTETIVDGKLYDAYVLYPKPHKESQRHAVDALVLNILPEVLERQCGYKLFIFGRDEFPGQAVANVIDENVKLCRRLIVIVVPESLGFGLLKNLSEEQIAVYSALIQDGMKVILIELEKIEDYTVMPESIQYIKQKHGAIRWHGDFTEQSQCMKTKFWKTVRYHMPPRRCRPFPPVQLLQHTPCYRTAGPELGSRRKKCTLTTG
Kind of experiment: cell-based or functional assay.

Experiment [2] has as its target T1, membrane hIL-36R. Description: cell-based or functional assay. This is another data set of the same source.
Experiment [3] deals with T1, membrane hIL-36R. Kind of experiment: cell-based or functional assay. The source holds these as a separate data set.
For experiment [4], the target named is T1, membrane hIL-36R. Description: cell-based or functional assay. The source holds these as a separate data set.
The target of experiment [5] is T1, membrane hIL-36R. Kind of experiment: cell-based or functional assay. The source holds these as a separate data set.
Experiment [6] deals with T1, membrane hIL-36R. Description: cell-based or functional assay. This is another data set of the same source.
For experiment [7], the target named is T2, Recombinant hIL-36R protein (Acrobio, Cat #IL2-H52H6) (human, UniProt Q9HB29 20-335).
T2 construct: Bought soluble protein; also called recombinant human IL-36R protein
T2 sequence: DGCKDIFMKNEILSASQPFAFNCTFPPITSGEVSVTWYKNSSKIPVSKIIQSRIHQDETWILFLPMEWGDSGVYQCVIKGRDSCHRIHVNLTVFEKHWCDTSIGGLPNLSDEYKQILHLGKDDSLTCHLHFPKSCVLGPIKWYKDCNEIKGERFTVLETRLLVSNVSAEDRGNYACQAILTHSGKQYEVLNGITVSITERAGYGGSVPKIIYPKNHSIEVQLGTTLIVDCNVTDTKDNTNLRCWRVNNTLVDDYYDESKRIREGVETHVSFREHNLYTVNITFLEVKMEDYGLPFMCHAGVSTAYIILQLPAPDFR
Kind of experiment: SPR (Biacore T200, 25 C), antibody captured by Fc, hIL-36R analyte. (In general: Surface plasmon resonance follows binding to a sensor surface in real time, without labels.)

For experiment [8], the target named is T3, Recombinant hIL1R1 protein (human, UniProt P14778 18-332, limits assumed).
T3 sequence (looked up): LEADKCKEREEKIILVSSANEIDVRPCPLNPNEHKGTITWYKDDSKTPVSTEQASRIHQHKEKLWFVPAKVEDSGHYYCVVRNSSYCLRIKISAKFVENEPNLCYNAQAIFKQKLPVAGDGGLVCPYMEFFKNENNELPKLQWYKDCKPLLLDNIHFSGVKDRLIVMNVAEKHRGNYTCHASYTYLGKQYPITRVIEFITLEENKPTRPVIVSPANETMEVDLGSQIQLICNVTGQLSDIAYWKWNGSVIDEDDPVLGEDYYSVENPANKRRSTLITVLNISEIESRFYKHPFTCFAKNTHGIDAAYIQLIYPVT
Kind of experiment: ELISA on coated recombinant hIL1R1 protein, detection with HRP anti-hIgG. Background: In an ELISA, binding on a coated surface is turned into a signal by an enzyme label.

Experiment [9] concerns the target T4, recombinant hIL-36R-his (human, UniProt Q9HB29 20-337).
T4 construct: Residues 1-337 (extracellular domain) are stated for the IL-36R-his used as immunogen; The range includes the signal peptide; no cleavage site is stated; also called recombinant hIL36R protein; recombinant human IL-36R-his protein; not shown: His tag
T4 sequence: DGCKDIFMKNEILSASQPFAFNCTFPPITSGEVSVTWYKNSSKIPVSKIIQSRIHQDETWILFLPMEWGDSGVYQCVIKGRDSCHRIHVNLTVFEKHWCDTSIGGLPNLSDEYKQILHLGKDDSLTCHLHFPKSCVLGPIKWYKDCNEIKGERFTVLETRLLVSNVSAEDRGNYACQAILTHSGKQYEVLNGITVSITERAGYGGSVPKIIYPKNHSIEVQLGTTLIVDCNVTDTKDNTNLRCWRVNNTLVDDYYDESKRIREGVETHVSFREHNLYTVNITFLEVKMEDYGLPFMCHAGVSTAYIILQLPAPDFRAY
Description: ELISA on coated recombinant hIL36R protein (1 µg/ml), detection with HRP anti-hIgG; unit taken from the x axis Ab(µg/mL).

Experiment [10] addresses T1, membrane hIL-36R. Description: flow cytometry on HEK293 cells transfected with pcDNA3.1-hIL36R, FITC anti-hIgG, MFI (median); unit taken from the x axis. For orientation: A flow cytometer gives signals particle by particle.
For experiment [11], the target named is T2, Recombinant hIL-36R protein (Acrobio, …). Description: BLI (Gator).
For experiment [12], the target named is T1, membrane hIL-36R. Description: cell-based or functional assay. The source holds these as a separate data set.
For experiment [13], the target named is T2, Recombinant hIL-36R protein (Acrobio, …). Kind of experiment: BLI as in Example 2, antibody on Protein A sensor, hIL-36R analyte.
Experiment [14] has the same target. Kind of experiment: BLI (Gator), antibody on Protein A sensor, hIL-36R analyte.
For experiment [15] the target is unchanged. Description: BLI (Gator), antibody on Protein A sensor, hIL-36R analyte; stands under the head kon(1/s), read as koff from KD = koff/kon.
The target is the same in experiment [16]. Kind of experiment: BLI (Gator), antibody on Protein A sensor, hIL-36R analyte; stands under the head koff(1/Ms), read as kon from KD = koff/kon.

Changes are numbered by the printed parent chain. Like-named read-outs stand apart in the source and are kept apart here. Some results are limits rather than exact numbers.

B1: ANB019 (antibody, V domains shown)
VH: QVQLVQSGAEVKKPGASVKVSCKASGYTFTNYWMNWVRQAPRQGLEWMGMFHPTGDVTRLNQKFKDRVTMTRDTSTSTVYMELSSLRSEDTAVYYCARTTSMIIGGFAYWGQGTLVTVSS
VL: DIVMTQTPLSLSVTPGQPASISCRSSKSLLHRNAITYFYWYLHKPGQPPQLLIYQMSNLASGVPDRFSGSGSGTDFTLKISRVEAEDVGVYYCAQNLELPLTFGGGTKVEIK
notes: also called benchmark antibody
In the case of B1, the “IC50, IL-36R reporter assay: inhibition of ligand induced luminescence in Jurkat-IL36R-IL1Racp-NFkB-luc cells” value (“IC50, IL-36R reporter assay: inhibition” for short) in [1] amounted to 0.0324 µg/mL. In experiment [2], the “IC50, inhibition of IL-36α induced IL-8 release in A431 cells (IL-8 ELISA, OD450) [panel IL-36α]” value is 1.58 µg/mL; the “IC50, inhibition of IL-36β induced IL-8 release in A431 cells (IL-8 ELISA, OD450) [panel IL-36β]” value amounted to 0.496 µg/mL; the “IC50, inhibition of IL-36γ induced IL-8 release in A431 cells (IL-8 ELISA, OD450) [panel IL-36γ]” value turned out to be 0.0474 µg/mL. Also, in experiment [3], the “IC50, inhibition of IL-36α induced IL-8 release in primary human dermal fibroblast (HDF) cells (IL-8 ELISA, OD450)” value turned out to be 0.106 µg/mL. In [4], the “IC50, inhibition of IL-36α induced IL-6 release in primary human epithelial keratinocytes (HEK cells) [panel IL-6]” value was determined as 1.35 µg/mL; the “IC50, inhibition of IL-36α induced IL-8 release in primary human epithelial keratinocytes (HEK cells) [panel IL-8]” value came to 1.15 µg/mL; the “IC50, inhibition of IL-36α induced TNF-α release in primary human epithelial keratinocytes (HEK cells) [panel TNF-α]” value was found to be 0.266 µg/mL. In addition, in experiment [5], the “IC50, inhibition of IL-36β induced IL-6 release in primary human epithelial keratinocytes (HEK cells) [panel IL-6]” value was 0.094 µg/mL; the “IC50, inhibition of IL-36β induced IL-8 release in primary human epithelial keratinocytes (HEK cells) [panel IL-8]” value turned out to be 0.35 µg/mL; the “IC50, inhibition of IL-36β induced TNF-α release in primary human epithelial keratinocytes (HEK cells) [panel TNF-α]” value stood at 0.0577 µg/mL. Moreover, in [6], the “IC50, inhibition of IL-36γ induced IL-6 release in primary human epithelial keratinocytes (HEK cells) [panel IL-6]” value was 0.159 µg/mL; the “IC50, inhibition of IL-36γ induced IL-8 release in primary human epithelial keratinocytes (HEK cells) [panel IL-8]” value was 0.187 µg/mL; the “IC50, inhibition of IL-36γ induced TNF-α release in primary human epithelial keratinocytes (HEK cells) [panel TNF-α]” value was found to be 0.0726 µg/mL. Besides, in [7], the Kd amounted to 13.2 nM, the koff was 0.000444 s⁻¹ and the kon stood at 33500 M⁻¹ s⁻¹. For the same molecule, in experiment [8], the binding result was “no binding (tested: 1 µg/mL)”. Further, the EC50 in [9] came out at 0.0228 µg/mL. Also, it took 0.119 µg/mL to reach a half-maximal effect in experiment [10] (EC50).

B2: 5F7-2a6 (antibody, human IgG4 S228P, kappa, V domains shown)
VH: EVQLVESGGGLVKPGGSLRLSCAASGFDFTDYYMNWVRQAPGKGLEWVALIRNKAAGYTIYYSAPVKGRFTISRDDSKSTLYLQMNSLKTEDTAVYYCVRDMTIYDGYYVDYALDYWGQGTLVTVSS
VL: DIVMTQSPSSVSASVGDRVTITCRASRNINIWLSWYQQKPGKAPKLFIYKASNLHTGVPSRFSGSGSGTDFTLTISSLQPEDFATYYCLQSQSYPLTFGQGTKLEIKR
Take B2: in experiment [11], the Kd was less than 0.1 nM and the kon came out at 39800 M⁻¹ s⁻¹. In addition, the “IC50, IL-36R reporter assay: inhibition” value in experiment [1] stood at 0.0228 µg/mL.

B3: 5F7-hu-5 (antibody, V domains shown)
VH: B2 VH with D28A
VL: DIVMTQSPSSVSASVGDRVTITCRASQNINIWLSWYQQKPGKAPKLFIYKASNLHTGVPSRFSGSGSGTDFTLTISSLQPEDFATYYCLQSQSYPLTFGQGTKLEIK
notes: Humanized 5F7; also called humanized 5F7
As for B3, the “IC50, IL-36R reporter assay: inhibition” value in experiment [12] turned out to be 0.0781 µg/mL. For the same molecule, in experiment [13], the Kd was 6.28 nM, the koff amounted to 0.000294 s⁻¹ and the kon stood at 46700 M⁻¹ s⁻¹.

B4: 5F7-2a1 (antibody, human IgG4 S228P, kappa, V domains shown)
VH: B2 VH with N35H
VL: B2 VL
On to B4, for which, in experiment [11], the Kd is less than 0.1 nM and the kon worked out at 32500 M⁻¹ s⁻¹. The “IC50, IL-36R reporter assay: inhibition” value in experiment [1] worked out at 0.0195 µg/mL.

B5: 5F7-hu-2 (antibody, V domains shown)
VH: QVQLQESGGGLVKPGGSLRLSCAASGFAFTDYYMNWIRQAPGKGLEWVSLIRNKAAGYTIYYADSVKGRFTISRDNAKSSLYLQMNSLRAEDTAVYYCVRDMTIYDGYYVDYALDYWGQGTLVTVSS
VL: EIVMTQSPATLSVSPGERATLSCRASQNINIWLSWYQQKPGQAPRLFIYKASNLHTGVPARFSGSGSGTEFTLTISSLQSEDFAVYYCLQSQSYPLTFGQGTKLEIK
notes: as for B3
Take B5: in experiment [12], the “IC50, IL-36R reporter assay: inhibition” value was 0.086 µg/mL. In experiment [13], the Kd is 6.86 nM, the koff came out at 0.000233 s⁻¹ and the kon came out at 34000 M⁻¹ s⁻¹.

B6: 9C12 (antibody, V domains shown)
VH: EVQLQQSGPELVKPGASVKMSCKASGYTFTDYHMNWVKRSPGKSLEWIGRINPDYGDARYDQKFKGKATLTVDKSLSTAYMQLNRLTYEDSAVYYCARDGYYVFDYWGQGSTLTVSS
VL: DIVMTQAAFSNPVSLGTSASISCRSSKSLLHSDGITYLSWYLQRPGQSPQLLIYRMSNLVSGVPDRFSGSGSGTDFTLRISRVEAEDVGVYYCAQTLEFPLTFGAGTKLELK
notes: Mouse variable regions, recombinantly expressed
With B6, the Kd in [14] was determined as 10 nM. Besides, the koff in experiment [15] is 0.000795 s⁻¹. The kon in experiment [16] turned out to be 79400 M⁻¹ s⁻¹.

B7: 1J3 (antibody, V domains shown)
VH: QVQLEQSGGDLVKPGGSLKLSCAASGFTFSSYGMSWVRQTPDKRLEWVATISSYGSYTSYPDTVKGRFTISRDNAKNTLYLQMSSLKSEDTAMYYCARPDYYVSTGFDYWGQGTTLTVSS
VL: DIVITQSTATLSVTPGDRVSLSCRASQSISDYLHWYQQKSHESPRLLIKYASQSISGIPSRFSGSGSGSDFTLSINSVEPEDVGVYYCQNGHSFPFTFGSGTKLEIK
notes: as for B6
On to B7, for which the Kd in experiment [14] was found to be 0.597 nM. In [15], the koff came to 4.37e-05 s⁻¹. Also, the kon in experiment [16] was found to be 73200 M⁻¹ s⁻¹.

By Kd is commonly meant the constant that tells how readily two partners part at equilibrium. As a reminder, the koff is a measure of how fast the partners let go of each other. The term kon denotes the second-order rate constant of association. For orientation: EC50 means the concentration needed to bring the measured effect to its halfway point.
